Here are results for two molecules from US20230151111A1 (AKESO BIOPHARMA, published 2023).

In general, EC50 refers to the concentration at which the effect is half-maximal.

The target of assay [1] is T1, CD73 on cell membrane surface (MDA-MB-231, U87-MG) (human, UniProt P21589 27-549).
T1 construct: whole, on cells; also called NT5E
T1 sequence (looked up): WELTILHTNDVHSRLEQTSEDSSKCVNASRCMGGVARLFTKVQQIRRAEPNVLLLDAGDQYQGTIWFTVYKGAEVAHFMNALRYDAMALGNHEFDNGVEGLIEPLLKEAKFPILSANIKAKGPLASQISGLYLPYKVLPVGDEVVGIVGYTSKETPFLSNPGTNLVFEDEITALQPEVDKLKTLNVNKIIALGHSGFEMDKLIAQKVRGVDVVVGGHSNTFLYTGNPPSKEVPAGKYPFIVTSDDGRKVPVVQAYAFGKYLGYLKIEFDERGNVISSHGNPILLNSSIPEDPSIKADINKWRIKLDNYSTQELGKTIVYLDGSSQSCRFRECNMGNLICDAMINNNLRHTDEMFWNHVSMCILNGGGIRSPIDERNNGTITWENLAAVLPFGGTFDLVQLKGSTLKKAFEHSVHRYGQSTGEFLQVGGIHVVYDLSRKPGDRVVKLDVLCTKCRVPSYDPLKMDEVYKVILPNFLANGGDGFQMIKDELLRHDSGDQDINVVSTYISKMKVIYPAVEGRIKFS
Nature of the assay: flow cytometry, MDA-MB-231 cells; antibody 33.33 nM. On the procedure:
(§1) MDA-MB-231 cells in logarithmic phase were digested with conventional trypsin and transferred to a 1.5 mL centrifuge tube at 3×10⁵ cells/tube. 500 μL of PBSA was added, and the mixture was centrifuged at 5600 rpm for 5 min to remove the supernatant. […] The system was mixed gently and uniformly, and then was incubated on ice for 1 h. Then 500 μL of PBSA was added, and the mixture was centrifuged at 5600 rpm for 5 min to remove the supernatant. […] 500 μL of PBSA was added, and the mixture was centrifuged at 5600 rpm for 5 min to remove the supernatant. At last, 200 μL of PBSA was added to resuspend cell precipitates, and the mixture was transferred to a flow tube for FACSCalibur detection.
(In general: In flow cytometry, cells or beads pass a laser one at a time.)

In assay [2] the target is T2, PD-1 on 293T-PD1 cell surface (human, UniProt Q15116 25-288).
T2 construct: whole, on cells
Nature of the assay: flow cytometry, 293T-PD1 cells; antibody 0.41 nM. As for the experimental part:
(§2) 500 μL of PBSA was added, and the mixture was centrifuged at 5600 rpm for 5 min to remove the supernatant. […] The system was mixed gently and uniformly, and then was incubated on ice for 1 h. Then 500 μL of PBSA was added, and the mixture was centrifuged at 5600 rpm for 5 min to remove the supernatant. […] 500 μL of PBSA was added, and the mixture was centrifuged at 5600 rpm for 5 min to remove the supernatant. At last, 200 μL of PBSA was added to resuspend cell precipitates, and the mixture was transferred to a flow tube for FACSCalibur detection.

The target of assay [3] is T1, CD73 on cell membrane surface …. Nature of the assay: flow cytometry, MDA-MB-231 cells; antibody 100.00 nM. On the procedure: as §1
In another assay the target is human PD-1-mFc-biotin (human, UniProt Q15116 25-170, limits assumed, biotin label, site not stated). Nature of the assay: competitive ELISA, blocking of PD-1-mFc-biotin binding to coated PD-L1-mFc. As for the experimental part:
After incubation, the microplate was blocked with a PBS solution containing 1% BSA at 37° C. for 2 h. After blocking, the plate was washed three times and dried. The antibody was serially diluted to 7 concentrations in a gradient ratio of 1:3 on a dilution plate with 10 μg/mL as the starting concentration, and a blank control was set. […] Then the mixture after reaction was added to the coated microplate, and the microplate was incubated for at 37° C. for 30 min. After incubation, the plate was washed three times with PBST and dried. SA-HRP (KPL, 14-30-00) working solution was added, and the plate was incubated at 37° C. for 30 min. After incubation, the plate was washed four times and patted dry. Then TMB (Neogen, 308177) was added in the dark for chromogenesis for 5 min, and a stop solution was added to terminate chromogenic reaction. Then the microplate was put into a microplate reader immediately, and the OD value of each well in the microplate was read at 450 nm. The data were analyzed and processed by SoftMax Pro 6.2.1.
For orientation: ELISA stands for enzyme-linked immunosorbent assay.

The target in assay [4] is T2, PD-1 on 293T-PD1 cell surface. Nature of the assay: flow cytometry, 293T-PD1 cells. On the procedure:
as §2

The target in assay [5] is T1, CD73 on cell membrane surface …. Nature of the assay: flow cytometry, MDA-MB-231 cells. As for the experimental part: as §1
For assay [6], the target named is T2, PD-1 on 293T-PD1 cell surface. Nature of the assay: flow cytometry, 293T-PD1 cells; antibody 0.14 nM. On the procedure: as §2
Assay [7] shares this target. Nature of the assay: flow cytometry, 293T-PD1 cells; antibody 11.11 nM. On the procedure: as §2
Assay [8] deals with T1, CD73 on cell membrane surface …. Nature of the assay: flow cytometry, MDA-MB-231 cells; antibody 0.14 nM. On the procedure:
as §1

For assay [9] the target is unchanged. Nature of the assay: flow cytometry, MDA-MB-231 cells; antibody 11.11 nM. As for the experimental part: as §1
In a further assay the target is T3, PD-1-mFc (human, UniProt Q15116 25-170, limits assumed).
T3 construct: also called human PD-1-mFc
Nature of the assay: ELISA, PD-1-mFc coated. On the procedure:
A microplate was coated with PD-1-mFc at 0.5 μg/mL and incubated at 4° C. overnight. Then the microplate coated with antigens was washed once with PBST, and then blocked with a PBS solution containing 1% BSA as blocking solution at 37° C. for 2 h. After blocking, the microplate was washed 3 times with PBST. The microplate containing the test antibodies was incubated at 37° C. for 30 min, and then washed 3 times with PBST. […] After incubation, the plate was washed 4 times with PBST, TMB (Neogen, 308177) was added in the dark for chromogenesis for 5 min, and then a stop solution was added to terminate chromogenic reaction. The microplate was put into a microplate reader immediately, and the OD value of each well in the microplate was read at 450 nm. The data were analyzed and processed by SoftMax Pro 6.2.1,

T2 sequence (Q15116 25-288): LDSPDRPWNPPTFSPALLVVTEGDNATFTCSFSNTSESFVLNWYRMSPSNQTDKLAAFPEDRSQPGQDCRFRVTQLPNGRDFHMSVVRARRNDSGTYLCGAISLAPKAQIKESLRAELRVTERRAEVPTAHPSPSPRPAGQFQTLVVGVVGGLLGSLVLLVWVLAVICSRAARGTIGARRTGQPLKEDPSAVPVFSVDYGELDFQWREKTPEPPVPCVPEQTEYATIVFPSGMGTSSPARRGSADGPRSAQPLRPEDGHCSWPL
T3 sequence (Q15116 other isoform, or with tags, fused parts or gaps limits assumed): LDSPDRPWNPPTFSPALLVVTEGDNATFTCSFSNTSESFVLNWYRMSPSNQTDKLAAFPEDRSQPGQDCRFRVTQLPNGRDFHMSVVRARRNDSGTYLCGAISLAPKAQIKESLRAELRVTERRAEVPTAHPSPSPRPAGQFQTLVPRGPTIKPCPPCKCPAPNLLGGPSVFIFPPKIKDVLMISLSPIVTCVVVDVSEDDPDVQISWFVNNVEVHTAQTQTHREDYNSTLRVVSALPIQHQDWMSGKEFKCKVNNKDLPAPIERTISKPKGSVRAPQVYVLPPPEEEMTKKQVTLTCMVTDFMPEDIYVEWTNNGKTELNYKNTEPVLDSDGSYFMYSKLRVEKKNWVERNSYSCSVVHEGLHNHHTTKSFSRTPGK
human PD-1-mFc-biotin, sequence (Q15116 other isoform, or with tags, fused parts or gaps limits assumed): as above

B1: P1D7V01 (bispecific antibody, human IgG1, kappa)
heavy: not shown
light: DIQMTQSPSSMSASVGDRVTFTCRASQDINTYLSWFQQKPGKSPKTLIYRANRLVSGVPSRFSGSGSGQDYTLTISSLQPEDMATYYCLQYDEFPLTFGAGTKLELKRTVAAPSVFIFPPSDEQLKSGTASVVCLLNNFYPREAKVQWKVDNALQSGNSQESVTEQDSKDSTYSLSSTLTLSKADYEKHKVYACEVTHQGLSSPVTKSFNRGEC
notes: Morrison form IgG-scFv
For B1, the FACS signal in assay [1] amounted to 526; in assay [2], 151; in [3] it was 706; in assay [6], 58.6; in assay [7], 578; in [8], 38. The same molecule gave an FACS signal in assay [9] of 561. For the same molecule, the EC50 amounted to 1.11 nM with human PD-1-mFc-biotin, 1 nM in assay [4], 1.38 nM in assay [5] and 0.078 nM with PD-1-mFc.

B2: P1D7V03 (bispecific antibody, human IgG1, kappa)
heavy: not shown
light: B1 light
notes: Morrison form IgG-scFv
As for B2, the FACS signal in assay [1] was 576; in [2] it was 118; in assay [3] it was 678; in assay [6], 49.2; in assay [7], 459; in assay [8] it was 44. This molecule also returned an FACS signal in assay [9] of 525. In addition, the concentration giving a half-maximal response (EC50) turned out to be 1.15 nM in the assay with human PD-1-mFc-biotin, 1.38 nM in assay [4], 2.01 nM in assay [5] and 0.075 nM in the assay with PD-1-mFc.
